According to PMC12810213, “Crystal structure of a short-chain dehydrogenase from Brucella ovis with apo and coenzyme NAD^+-bound protomer chains” (Acta Crystallographica Section F: Structural Biology …, 2025):

Experiments:
SEC = target: the molecule itself; assay: SEC
crystal structure = target: the molecule itself; assay: crystal structure

B1: short-chain dehydrogenase/reductase-family oxidoreductase from Brucella ovis ATCC 25840 (enzyme)
chain: MELLKEKLVLVTGAGRGLGAAISSGAAEQGARVILVDIDGTAAKAQADALTAKGFVAEGHALDVTDRDAVAALADDILSRFGGLDVLVNNAGVAGRAAFDQPEAVEVWDRVIGVNLEGAFNVSHALVPALKAAKGNVVHLCSVAGFVSGGSTAGYVVSKGAIRSLTQVMARDLAPHGIRVNAVAPGIMMSEMAVAQLNRPGGTDWFMNRVMMKRIGETSEVVDPVVFLASPMASYITGTILPVDGGFLAA
notes: also called BoSDR; B. ovis SDR; not shown: His6, N-terminal, kept
stoichiometry N (SEC): ~2 | stoichiometry N (crystal structure): 4
